Laboratory results published in patent US20230242658A1 (published 2023).
Substitutions are numbered along the chain they refer to.

B1: PR003549 (bispecific antibody, human IgG1, kappa, L234A L235A)
light: DIQMTQSPSTLSASVGDRVTVTCRASQSIYIWLAWYQQKPGKAPNLLIYKASSLETGVPSRFSGSGSGTEFTLTISSLQPDDFATYYCQQYYGSSRTFGQGTKVEIKRTVAAPSVFIFPPSDEQLKSGTASVVCLLNNFYPREAKVQWKVDNALQSGNSQESVTEQDSKDSTYSLSSTLTLSKADYEKHKVYACEVTHQGLSSPVTKSFNRGEC
heavy: EVQLVESGGGLVQPGGSLRLSCAASGFTFSSYWMSWVRQAPGKGLEWVANIKQEGSEKYYVDSVKGRFTISRDNAKNSLYLQMNSLRAEDTAVYYCARDRAVAGAFDIWGQGTMVTVSSASTKGPSVFPLAPSSKSTSGGTAALGCLVKDYFPEPVTVSWNSGALTSGVHTFPAVLQSSGLYSLSSVVTVPSSSLGTQTYICNVNHKPSNTKVDKKVEPKSCDKTHTCPPCPAPEAAGGPSVFLFPPKPKDTLMISRTPEVTCVVVDVSHEDPEVKFNWYVDGVEVHNAKTKPREEQYNSTYRVVSVLTVLHQDWLNGKEYKCKVSNKALGAPIEKTISKAKGQPREPQVYTLPPSREEMTKNQVSLTCLVKGFYPSDIAVEWESNGQPENNYKTTPPVLDSDGSFFLYSKLTVDKSRWQQGNVFSCSVMHEALHNHYTQKSLSLSPGEPKSSDKTHTPPPPPRTEVQLLESGGGLVQLGGSLRLSCAASGFTFSRYAMTWVRQAPEKGLEWVSSISGSGDDTYYGDSVKGRFTISRDNSQNTVYLQMNSLRAEDTAVYFCAKEKAGTTGDYYYNVDVWGQGTTVTVSS
notes: PD-L1x4-1BB IgG-VH: PR000265 + VH of PR001758 at heavy-chain C-terminus
B2: PR003551 (bispecific antibody, human IgG1, kappa, L234A L235A)
light: B1 light
heavy: EVQLVESGGGLVQPGGSLRLSCAASGFTFSSYWMSWVRQAPGKGLEWVANIKQEGSEKYYVDSVKGRFTISRDNAKNSLYLQMNSLRAEDTAVYYCARDRAVAGAFDIWGQGTMVTVSSASTKGPSVFPLAPSSKSTSGGTAALGCLVKDYFPEPVTVSWNSGALTSGVHTFPAVLQSSGLYSLSSVVTVPSSSLGTQTYICNVNHKPSNTKVDKKVEPKSCDKTHTCPPCPAPEAAGGPSVFLFPPKPKDTLMISRTPEVTCVVVDVSHEDPEVKFNWYVDGVEVHNAKTKPREEQYNSTYRVVSVLTVLHQDWLNGKEYKCKVSNKALGAPIEKTISKAKGQPREPQVYTLPPSREEMTKNQVSLTCLVKGFYPSDIAVEWESNGQPENNYKTTPPVLDSDGSFFLYSKLTVDKSRWQQGNVFSCSVMHEALHNHYTQKSLSLSPGEPKSSDKTHTPPPPPRTEVQLLESGGGLVQPGGSLRLSCAASGFIFSNFAMTWVRQPPEKGLKWVSSINGSGFNTYYTDSVKGRFTISRDNSRNTLYLQMNRLTAEDTAVYFCAKEGSSETDDHYYNVDVWGQGTTVTVSS
notes: PD-L1x4-1BB IgG-VH: PR000265 + VH of PR001836 at heavy-chain C-terminus
B3: PR007130 (bispecific antibody, human IgG1, kappa)
light: B1 light
heavy: EVQLVESGGGLVQPGGSLRLSCAASGFTFSSYWMSWVRQAPGKGLEWVANIKQEGSEKYYVDSVKGRFTISRDNAKNSLYLQMNSLRAEDTAVYYCARDRAVAGAFDIWGQGTMVTVSSASTKGPSVFPLAPSSKSTSGGTAALGCLVKDYFPEPVTVSWNSGALTSGVHTFPAVLQSSGLYSLSSVVTVPSSSLGTQTYICNVNHKPSNTKVDKKVEPKSCDKTHTCPPCPAPEAAGAPSVFLFPPKPKDTLMISRTPEVTCVVVDVSHEDPEVKFNWYVDGVEVHNAKTKPREEQYNSTYRVVSVLTVLHQDWLNGKEYKCKVSNKALPAPIEKTISKAKGQPREPQVYTLPPSREEMTKNQVSLTCLVKGFYPSDIAVEWESNGQPENNYKTTPPVLDSDGSFFLYSKLTVDKSRWQQGNVFSCSVMHEALHNHYTQKSLSLSPGGGSGGSEVQLLESGGGLVQPGGSLRLSCAASGFTFSNYAMSWFRQPPETGLKWVSSIDASGGDTYYADSVKGRFTISRDNSKNTLYLQMNSLRAEDTAVYYCAKEGSHGTDDSHYDVDVWGQGTTVTVSS
notes: PD-L1x4-1BB IgG-VH: PR000265 + VH of PR004469 at heavy-chain C-terminus
B4: PR007132 (bispecific antibody, human IgG1, kappa)
light: B1 light
heavy: EVQLVESGGGLVQPGGSLRLSCAASGFTFSSYWMSWVRQAPGKGLEWVANIKQEGSEKYYVDSVKGRFTISRDNAKNSLYLQMNSLRAEDTAVYYCARDRAVAGAFDIWGQGTMVTVSSASTKGPSVFPLAPSSKSTSGGTAALGCLVKDYFPEPVTVSWNSGALTSGVHTFPAVLQSSGLYSLSSVVTVPSSSLGTQTYICNVNHKPSNTKVDKKVEPKSCDKTHTCPPCPAPEAAGAPSVFLFPPKPKDTLMISRTPEVTCVVVDVSHEDPEVKFNWYVDGVEVHNAKTKPREEQYNSTYRVVSVLTVLHQDWLNGKEYKCKVSNKALPAPIEKTISKAKGQPREPQVYTLPPSREEMTKNQVSLTCLVKGFYPSDIAVEWESNGQPENNYKTTPPVLDSDGSFFLYSKLTVDKSRWQQGNVFSCSVMHEALHNHYTQKSLSLSPGGGSGGSEVQLVESGGGLVKPGGSLRLSCAASGFTFSDYYMSWIRQAPGKGLEWVSYISSSGSTIYYADSVKGRFTISRDNAKNSLYLQMNSLRAEDTAVYYCARVKPVAGTWDWFDPWGQGTPVTVSS
notes: PD-L1x4-1BB IgG-VH: PR000265 + VH of PR007286 at heavy-chain C-terminus
B5: PR007136 (bispecific antibody, human IgG1, kappa)
light: B1 light
heavy: EVQLVESGGGLVQPGGSLRLSCAASGFTFSSYWMSWVRQAPGKGLEWVANIKQEGSEKYYVDSVKGRFTISRDNAKNSLYLQMNSLRAEDTAVYYCARDRAVAGAFDIWGQGTMVTVSSASTKGPSVFPLAPSSKSTSGGTAALGCLVKDYFPEPVTVSWNSGALTSGVHTFPAVLQSSGLYSLSSVVTVPSSSLGTQTYICNVNHKPSNTKVDKKVEPKSCDKTHTCPPCPAPEAAGAPSVFLFPPKPKDTLMISRTPEVTCVVVDVSHEDPEVKFNWYVDGVEVHNAKTKPREEQYNSTYRVVSVLTVLHQDWLNGKEYKCKVSNKALPAPIEKTISKAKGQPREPQVYTLPPSREEMTKNQVSLTCLVKGFYPSDIAVEWESNGQPENNYKTTPPVLDSDGSFFLYSKLTVDKSRWQQGNVFSCSVMHEALHNHYTQKSLSLSPGGGSGGSEVQLVESGGGLVKPGGSLRLSCAASGFTFSDYYMSWFRQAPGKGLEWVSYISSSGSTQDYADSVKGRFTISRDNAKNSLYLQMNSLRAEDTAVYYCAREREPVAGTLDFDNWGQGTPVTVSS
notes: PD-L1x4-1BB IgG-VH: PR000265 + VH of PR007289 at heavy-chain C-terminus
B6: PR007133 (bispecific antibody, human IgG1, kappa)
light: B1 light
heavy: B5 heavy with V459E, T511I, Q512T, S517A, T523N, P556A, P571L
notes: PD-L1x4-1BB IgG-VH: PR000265 + VH of PR007287 at heavy-chain C-terminus
B7: PR007135 (bispecific antibody, human IgG1, kappa)
light: B1 light
heavy: B5 heavy with S507G, T511I, Q512I, A551S, P556A, N565Y, P571L
notes: PD-L1x4-1BB IgG-VH: PR000265 + VH of PR007288 at heavy-chain C-terminus
B8: PR007137 (bispecific antibody, human IgG1, kappa)
light: B1 light
heavy: B5 heavy with L465V, K467Q, G470R, S510T, Q512I, P556E, N565Y
notes: PD-L1x4-1BB IgG-VH: PR000265 + VH of PR007290 at heavy-chain C-terminus
B9: PR007139 (bispecific antibody, human IgG1, kappa)
light: B1 light
heavy: B5 heavy with F491I, Q512I, P556E, F563Y, P571L
notes: PD-L1x4-1BB IgG-VH: PR000265 + VH of PR007292 at heavy-chain C-terminus
B10: PR007141 (bispecific antibody, human IgG1, kappa)
light: B1 light
heavy: B5 heavy with A477V, S507G, S510T, Q512I, P571L
notes: PD-L1x4-1BB IgG-VH: PR000265 + VH of PR007294 at heavy-chain C-terminus
B11: PR007143 (bispecific antibody, human IgG1, kappa)
light: B1 light
heavy: B5 heavy with A477V, S507G, S510T, Q512I, P556A
notes: PD-L1x4-1BB IgG-VH: PR000265 + VH of PR007296 at heavy-chain C-terminus
B12: PR007146 (bispecific antibody, human IgG1, kappa)
light: B1 light
heavy: B5 heavy with F491V, Q512I, Y534F, Q536E, P556E, P571L
notes: PD-L1x4-1BB IgG-VH: PR000265 + VH of PR007298 at heavy-chain C-terminus
B13: PR007142 (bispecific antibody, human IgG1, kappa)
light: B1 light
heavy: EVQLVESGGGLVQPGGSLRLSCAASGFTFSSYWMSWVRQAPGKGLEWVANIKQEGSEKYYVDSVKGRFTISRDNAKNSLYLQMNSLRAEDTAVYYCARDRAVAGAFDIWGQGTMVTVSSASTKGPSVFPLAPSSKSTSGGTAALGCLVKDYFPEPVTVSWNSGALTSGVHTFPAVLQSSGLYSLSSVVTVPSSSLGTQTYICNVNHKPSNTKVDKKVEPKSCDKTHTCPPCPAPEAAGAPSVFLFPPKPKDTLMISRTPEVTCVVVDVSHEDPEVKFNWYVDGVEVHNAKTKPREEQYNSTYRVVSVLTVLHQDWLNGKEYKCKVSNKALPAPIEKTISKAKGQPREPQVYTLPPSREEMTKNQVSLTCLVKGFYPSDIAVEWESNGQPENNYKTTPPVLDSDGSFFLYSKLTVDKSRWQQGNVFSCSVMHEALHNHYTQKSLSLSPGGGSGGSEVQLVESGGGLVKPGGSLRLSCAASGFTFSDYYMSWIRQAPGKGLEWVSYISNNGSTIYYADSVKGRFTISRDNAKNSLYLQMNSLRAEDTAVYYCARVRPGGSGNYWDWFDPWGQGTMVTVSS
notes: PD-L1x4-1BB IgG-VH: PR000265 + VH of PR007295 at heavy-chain C-terminus
B14: PR007138 (bispecific antibody, human IgG1, kappa)
light: B1 light
heavy: B13 heavy with A477V, A478T, S489N, L499Q, N507G, M573P
notes: PD-L1x4-1BB IgG-VH: PR000265 + VH of PR007291 at heavy-chain C-terminus
B15: PR007145 (bispecific antibody, human IgG1, kappa)
light: B1 light
heavy: B13 heavy with N507R, N508S, M573L
notes: PD-L1x4-1BB IgG-VH: PR000265 + VH of PR007297 at heavy-chain C-terminus

Legend:
[1] = target: T1, human PD-L1 on CHO-K1 cells (human, UniProt Q9NZQ7 19-290); assay: FACS, CHO-K1/hPD-L1 cells
T1 construct: whole, on cells; also called CHO-K1/hPDL1; CHO-K1/hPD-L1
T1 sequence (Q9NZQ7 19-290): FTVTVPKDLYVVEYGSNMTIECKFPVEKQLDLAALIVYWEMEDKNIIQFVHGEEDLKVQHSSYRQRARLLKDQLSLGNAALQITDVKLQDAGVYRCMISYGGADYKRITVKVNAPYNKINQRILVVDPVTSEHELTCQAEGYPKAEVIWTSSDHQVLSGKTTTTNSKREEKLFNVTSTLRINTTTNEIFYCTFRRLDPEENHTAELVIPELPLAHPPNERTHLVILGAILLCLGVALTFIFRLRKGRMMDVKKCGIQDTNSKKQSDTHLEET

[2] = target: T2, human 4-1BB on CHO-K1 cells (human, UniProt Q07011 24-255); assay: FACS, CHO-K1/hu4-1BB cells
T2 construct: whole, on cells; also called CHO-K1/hu 4-1BB; CHO-K1/hu4-1BB
T2 sequence (Q07011 24-255): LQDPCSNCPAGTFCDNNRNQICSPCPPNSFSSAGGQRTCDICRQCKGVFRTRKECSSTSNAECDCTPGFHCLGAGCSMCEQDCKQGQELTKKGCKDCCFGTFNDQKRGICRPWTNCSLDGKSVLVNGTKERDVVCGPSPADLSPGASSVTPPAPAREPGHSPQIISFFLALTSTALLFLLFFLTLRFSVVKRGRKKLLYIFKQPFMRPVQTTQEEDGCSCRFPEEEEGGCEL
Method: The binding abilities of the antibody molecules to a CHO-K1 cell strain highly expressing human 4-1BB (CHO-K1/hu4-1BB, GenScript, M00538) and a CHO-K1 cell strain highly expressing cynomolgus monkey 4-1BB (CHO-K1/cyno4-1BB, GenScript, M00569) were determined by flow cytometry FACS. Specifically, the cells were digested and resuspended in a complete medium, and the cell density was adjusted to 2×10⁶ cells/mL. Then, the cells were seeded in a 96-well V-bottom plate (Corning, #3894) at 100 μL/well (2×10⁵ cells/well) and centrifuged at 4° C. for 5 min, and the supernatant was discarded. Then, the serially diluted antibody molecules were added to the 96-well plate at 100 μL/well, and the mixtures were well mixed. The antibody molecules might serially diluted 3-fold from the highest final concentration 200 nM to obtain a total of 12 concentrations. hIgG1 iso (CrownBio, #C0001) was used as an isotype control. The cells were incubated at 4° C. for 1 h away from light. Then, the cells in each well were rinsed twice with 100 μL of pre-cooled FACS buffer (PBS buffer containing 0.5% BSA) and centrifuged at 500 g at 4° C. for 5 min, and then the supernatant was discarded. […] Then, the cells in each well were then rinsed twice with 200 μL of pre-cooled FACS buffer and centrifuged at 500 g at 4° C. for 5 min, and then the supernatant was discarded. Finally, a pre-cooled FACS buffer was added at 200 μL/well to resuspend the cells. The fluorescence signal values were read using a BD FACS CANTOII flow cytometer.

Row | Binder | binding result [1] | binding result [2]
1 | B1 | binds | binds
2 | B2 | binds | binds
3 | B3 | binds | binds
4 | B4 | binds | binds
5 | B5 | binds | binds
6 | B6 | binds | binds
7 | B7 | binds | binds
8 | B8 | binds | binds
9 | B9 | binds | binds
10 | B10 | binds | binds
11 | B11 | binds | binds
12 | B12 | binds | binds
13 | B13 | binds | binds
14 | B14 | binds | binds
15 | B15 | binds | binds
